Measured values: patent US20050079151A1, “Therapeutic agents for apoptosis-related diseases” (priority 1998, published 2005)

Key:
NG 108 cell lines = test: Determination of DNA content in apoptosis-induced neurocytes (UV, PI staining, flow cytometry); assay type: cell-based, mouse; settings: after UV exposure; for Ratio of cells at each cell cycle: G1: control group 7; for Ratio of cells at each cell cycle: G2/M: control group 9; for Ratio of cells at each cell cycle: S: control group 84
Description: The culture flasks were coated with MK 100 ng/ml or MK 10 μg/ml. The flasks without a MK-coating (control) were also prepared.
NG 108 cell lines, hybrid cells of mouse neuroblastoma C1300 and glioma (Nelson P. G. et al.: Brain Res., 147: 245, 1978), were cultured in a Falcon 3110 cell culture flask (75 cm^2, BECTON DICKINSON) containing 10% FBS/DMEM until the cells were almost confluent. After culturing, the cells were exposed to ultraviolet light for […] (UV radiation amount: 60-100 J/m^2) to induce apoptosis.
The cells were collected by centrifugation (4° C., 1000 rpm, 10 min), and washed with 10 to 12 ml of sample buffer [1 g glucose/1 L PBS (−); filtered through a 0.22 μm filter] twice. The cells were adjusted to 1×10^6 to 3×10^6 cells/ml with the sample buffer, and 1 ml of them was centrifuged (4° C., 1000 rpm, 10 min) in a centrifuge tube (FALCON; 15×75 mm). The supernatant was discarded and the pellet was vigorously vortexed for 10 sec. Ethanol (70%) cooled with ice (1 ml) was added dropwise thereto and fixed at 4° C. overnight.
The cells fixed overnight were briefly vortexed and centrifuged (3000 rpm, 5 min). 70% Ethanol in the supernatant was discarded to 0.2 ml or less. The centrifuge tubes containing the cells were slowly vortexed, and 1 ml of propidium iodide (PI) stain was added thereto. The PI stain contained 0.5 ml of 20×PI solution, 0.1 ml of 100×RNase A solution, and 10 ml of the sample buffer. Twenty-fold dilution of PI was obtained by preparing 1 mg/ml of PI solution (SIGMA), filtering it through a 0.22 μm filter, and storing it at 4° C. in the dark. RNase A solution (100×) was prepared by adjusting RIBONUCLEASE A (Type I-A) (SIGMA) (10000 U/ml) to 125 mg/ml (80 U/mg).
The cells were lightly shaken, incubated for 30 min or longer at room temperature, and measured by flow cytometry.

Bcl-2 = test: Effect for enhancing Bcl-2 expression (Western blotting); assay type: cell-based; settings: G401 cells
Description: The effect of MK on the expression of the Bcl-2 gene was examined. Six groups were prepared; the untreated group, the cisplatin (100 μM) treated group, the human MK (100 ng/ml) treated group, the human MK (100 ng/ml)+cisplatin (100 μM) group, the mouse MK (100 ng/ml) treated group, and the mouse MK (100 ng/ml)+cisplatin (100 μM) treated group.
G401 cells were seeded on a 3.5 cm-dish and cultured in 10% FBS/DMEM until the cells became almost confluent. The cells were washed twice and cultured in 0.1% FBS/DMEM overnight. Then, human MK or mouse MK (JP-A No. Hei 8-196293) was added to the MK treatment groups at 100 ng/ml and cultured for six hours. Cisplatin was added to the cisplatin treatment group to 100 μM, and cultured for 2 hours. After culturing, the cells were washed with 0.1% FBS/DMEM three times, cultured in 0.1% FBS/DMEM for 10 hours, and washed with PBS three times.
Two hundred microliters of buffer [1% Triton X-100, 150 mM NaCl, 10 mM Tris (pH 7.4), 1.0 mM EGTA, 0.5% NP-40, 1 mM PMSF, 0.1 μg/ml apiotinin, 40 nM Iewpeptin] were added to each dish and kept on ice for 20 min. The cells in each dish were detached by a scraper, and mixed 8 to 10 times using a syringe with a 26-gauge needle. The cells of each dish were centrifuged in a centrifuge tube at 4° C. at 12000 rpm for 30 min. The precipitated proteins were quantified (BCA Kit; PIERCE). The precipitate prepared from each dish (50 μg) was analyzed by Western blotting using anti-Bcl-2 monoclonal antibody (500×) (Dako; Denmark) and anti-mouse HRP antibody (Jackson Immuno Research) (FIG. 6). The band in each lane is numerically shown (FIG. 7).

hippocampal neurocytes = test: Apoptosis-inhibitory effect in vivo, transient forebrain ischemia, MK administration after the ischemic injury; set-up: species or system Mongolian gerbil; settings: counted seven days after injury
Description: MK (2.0 μg) was injected into the ventricle of a Mongolian gerbil transient forebrain ischemia model 2, 4, 6, 12, or 24 hours after the ischemic injury. The numbers of surviving hippocampal neurocytes were counted seven days after the ischemic injury (FIG. 16). When MK was administered at 2 hours after the injury, the number of surviving neurocytes decreased, compared to the Sham-op group, while it was considerably higher than the saline administrated group.
The numbers of surviving hippocampal neurocytes in the groups administered 2, 4, 6, 12, or 24 hours after the ligation were 120±36 (n=4), 90±23 (n=6), 80±13 (n=6), 86±34 (n=6), and 93±22 (n=4) cells/mm, respectively (FIG. 16).

B1: MK: midkine, a heparin-binding growth and differentiation factor; human MK protein (SEQ ID NO: 3; or recombinant, secreted by yeast) (protein, UniProt P21741 21-143, looked up)
Midkine: VAKKKDKVKKGGPGSECAEWAWGPCTPSSKDCGVGFREGTCGAQTQRIRCRVPCNWKKEFGADCKYKFENWGACDGGTGTKVRQGTLKKARYNAQCQETIRVTKPCTPKTKAKAKAKKGKGKD
NG 108 cell lines; flask coated with MK 100 ng/ml
  Ratio of cells at each cell cycle: G1: 75%
  Ratio of cells at each cell cycle: G2/M: 5%
  Ratio of cells at each cell cycle: S: 19%
NG 108 cell lines; flask coated with MK 10 μg/ml
  Ratio of cells at each cell cycle: G1: 67%
  Ratio of cells at each cell cycle: G2/M: 24%
  Ratio of cells at each cell cycle: S: 9%
NG 108 cell lines; in the presence of MK
  change of the ratio of the cells at G1 phase compared with the control group: increased by about tenfold
  change of the ratio of the cells at S phase compared with the control group: decreased one eighth to one forth
Bcl-2; MK 100 ng/ml, no cisplatin
  expression of Bcl-2: enhanced the expression of Bcl-2
Bcl-2; data not shown
  concentration showing the Bcl-2 enhancing effect: ≥ 10 ng/mL
Hippocampal neurocytes; MK 2.0 μg into the ventricle 2 hours after the ligation
  numbers of surviving hippocampal neurocytes: 120±36 cells/mm
Hippocampal neurocytes; MK 2.0 μg into the ventricle 4 hours after the ligation
  numbers of surviving hippocampal neurocytes: 90±23 cells/mm
Hippocampal neurocytes; MK 2.0 μg into the ventricle 6 hours after the ligation
  numbers of surviving hippocampal neurocytes: 80±13 cells/mm
Hippocampal neurocytes; MK 2.0 μg into the ventricle 12 hours after the ligation
  numbers of surviving hippocampal neurocytes: 86±34 cells/mm
Hippocampal neurocytes; MK 2.0 μg into the ventricle 24 hours after the ligation
  numbers of surviving hippocampal neurocytes: 93±22 cells/mm
